Measured values from patent publication US20220411531A1 (SUMGEN MAB BEIJING BIOTECH, published 2022).

T1: AXL-His (Sino Biological Inc., 6x His labels, molecular weight 47.5 Kda) (UniProt P30530-2 26-440, limits assumed)
T1 construct: Bought reagent; also called target antigen AXL-His; target antigen AXL; not shown: 6x His tag
T1 sequence (looked up): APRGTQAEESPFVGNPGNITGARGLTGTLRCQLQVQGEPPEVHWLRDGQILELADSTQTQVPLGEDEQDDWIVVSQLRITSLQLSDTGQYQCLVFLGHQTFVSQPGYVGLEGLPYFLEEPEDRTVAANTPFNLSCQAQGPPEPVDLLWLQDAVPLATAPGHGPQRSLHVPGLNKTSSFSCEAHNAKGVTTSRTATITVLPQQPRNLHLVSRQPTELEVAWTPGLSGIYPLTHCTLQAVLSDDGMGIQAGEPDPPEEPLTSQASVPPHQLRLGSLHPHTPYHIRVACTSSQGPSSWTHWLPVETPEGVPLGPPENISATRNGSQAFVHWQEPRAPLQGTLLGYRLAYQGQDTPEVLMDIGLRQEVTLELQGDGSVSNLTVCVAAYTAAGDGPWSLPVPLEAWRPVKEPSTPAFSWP

T2: TYRO3-Fc (ACRO Biosystems) (UniProt Q06418 41-428, limits assumed)
T2 construct: Bought reagent; also called TRYO3; not shown: Fc part
T2 sequence (looked up): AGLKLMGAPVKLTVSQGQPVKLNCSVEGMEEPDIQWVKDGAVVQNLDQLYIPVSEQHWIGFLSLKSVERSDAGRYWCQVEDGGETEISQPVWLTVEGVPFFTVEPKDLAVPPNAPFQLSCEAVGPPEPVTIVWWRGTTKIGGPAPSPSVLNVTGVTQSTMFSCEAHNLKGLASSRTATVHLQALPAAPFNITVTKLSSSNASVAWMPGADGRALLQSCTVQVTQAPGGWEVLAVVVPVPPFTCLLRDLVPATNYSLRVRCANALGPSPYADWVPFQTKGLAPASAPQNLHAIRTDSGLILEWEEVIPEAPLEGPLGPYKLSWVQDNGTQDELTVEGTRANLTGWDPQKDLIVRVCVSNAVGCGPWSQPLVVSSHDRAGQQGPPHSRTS


Tests used:
[1] = target: T1, AXL-His (Sino Biological Inc., 6x His …); assay: ELISA, AXL-His coated at 1 ug/ml
Method: A target antigen AXL-His (Sino Biological Inc.) was coated at 1 μg/ml on an ELISA strip, which was held at 4° C. overnight. After the ELISA strip was washed with PBST, 10% fetal bovine serum was added to the ELISA strip, which was blocked for 1 hour at 37° C. Different concentrations of antibodies 6G12M11, 6G12M21, 6G12M31 and 6G12M41 were added to react at 37° C. for 1 hour. After the ELISA strip was washed with PBST, a horseradish peroxidase-labeled goat anti-mouse secondary antibody (Goat Anti-mouse IgG HRP, Abcam) was added to react for 30 minutes at 37° C. The ELISA strip was washed 5 times with PBST, and patted and dried on absorbent paper to remove residual droplets as much as possible. 100 μl of TMB (eBioscience) was added to each well, and the ELISA strip was held for 1.5 min at room temperature (20±5° C.) in the dark. 100 μl of 2N H₂SO₄ stop solution was added to each well to terminate substrate reaction. The OD value was read at 450 nm by a microplate reader to analyze the binding ability of each antibody to the target antigen AXL. The amino acid sequence of the heavy chain of antibody 6G12M11 is as set forth in SEQ ID NO: 35, and the amino acid sequence of the light chain of the same is as set forth in SEQ ID NO: 36; the amino acid sequence of the heavy chain of antibody 6G12M21 is as set forth in SEQ ID NO: 37, and the amino acid sequence of the light chain of the same is as set forth in SEQ ID NO: 38; the VH of antibody 6G12M31 is as set forth in SEQ ID NO: 42, and the VL of the same is as set forth in SEQ ID NO: 6; and the VH of antibody 6G12M41 is as set forth in SEQ ID NO: 43, and the VL of the same is as set forth in SEQ ID NO: 6.
It can be seen that both antibodies 6G12M11 and 6G12M21 can specifically recognize the target antigen AXL.

[2] = target: T2, TYRO3-Fc (ACRO Biosystems); assay: ELISA, TYRO3-Fc coated at 1 µg/ml, anti-human IgG Fab-HRP, OD450
Method: AXL, TRYO3, and MER are all members of the TYRO3 receptor tyrosine kinase subfamily. To verify the recognition specificity of the antibodies 6G12M11, 6G12M21, 6G12M31 and 6G12M41, the binding ability of these antibodies to other members of the AXL family is tested by the ELISA method.
TYRO3-Fc (ACRO Biosystems), MER-His (ACRO Biosystems), and AXL-His (Sino Biological Inc.) each were coated at 1 μg/ml on an ELISA strip, which was held at 4° C. overnight. After the ELISA strips were washed with PBST, 10% fetal bovine serum was added to the ELISA strip, which was blocked for 1 hour at 37° C. Antibodies […], 6G12M21, 6G12M31 and 6G12M41 were added to react at 37° C. for 1 hour. After the ELISA strips were washed with PBST, horseradish peroxidase-labeled goat anti-human IgG Fab secondary antibodies (Goat Anti-Human IgG (Fab′)₂ (HRP), Abcam) were added to react for 30 minutes at 37° C. The ELISA strips were washed 5 times with PBST, and patted and dried on absorbent paper to remove residual droplets as much as possible. 100 μl of TMB (eBioscience, #85-00-420) was added to each well, and the ELISA strips were held for 1.5 min at room temperature (20±5° C.) in the dark. 100 μl of 2N H₂SO₄ stop solution was added to each well to terminate substrate reaction. The OD value was read at 450 nm by a microplate reader to analyze the binding ability of antibodies to the proteins.

EC50 [1] [mg/L]	binding result [2]	Binder
0.0211	no binding (tested: about 1 µg/mL)	antibody 6G12M31 (antibody, V domains shown) VH: QVQLVQSGPGLVKPSQSLSLTCSVTGFSISSGYYWNWIRQFPGQKLEWMGYRSYDGSNNYDPSLKNRISITRDTSKNQFFLKLNSVTSEDTATYYCARGWLLHYTMDYWGQGTTVTVSS VL: DIVMTQSPSSVSVTLGQSASISCRSSRSLLHSNGFTYLYWYLQKPGQSPQLLIYQMSNLASGVPDRFSGSGSGTDFTLKISRVEAEDVGVYYCGQNLELPLTFGGGTKLEIK
0.027	–	antibody 6G12M11 (antibody, human IgG1, kappa, V domains shown) VH: QVQLVQSGPGLVKPSQSLSLTCAVTGFSISSGYYWNWIRQFPGQKLEWMGYRSYDGSNNYNPSLKNRISITRDTSKNQFFLKLNSVTSEDTATYYCARGWLLHYTMDYWGQGTTVTVSS VL: EIVMTQSPSSVSVTLGQSASISCRSSRSLLHSNGFTYLYWYLQKPGQSPQLLIYQMSNLASGVPDRFSGSGSGTDFTLKISRVEAEDVGVYYCGQNLELPLTFGGGTKLEIKR
0.0253	no binding (tested: about 1 µg/mL)	antibody 6G12M21 (antibody, human IgG1, kappa, V domains shown) VH: QVQLVQSGPGLVKPSQSLSLTCSVTGFSISSGYYWNWIRQFPGQKLEWMGYRSYDGSNNYNPSLKNRISITRDTSKNQFFLKLNSVTSEDTATYYCARGWLLHYTMDYWGQGTTVTVSS VL: DIVMTQSPSSVSVTLGQSASISCRSSRSLLHSNGFTYLYWYLQKPGQSPQLLIYQMSNLASGVPDRFSGSGSGTDFTLKISRVEAEDVGVYYCGQNLELPLTFGGGTKLEIKR
0.0176	no binding (tested: about 1 µg/mL)	antibody 6G12M41 (antibody, V domains shown) VH: QVQLVQSGPGLVKPSQSLSLTCSVTGFSISSGYYWNWIRQFPGQKLEWMGYRSYDGSNNYGPSLKNRISITRDTSKNQFFLKLNSVTSEDTATYYCARGWLLHYTMDYWGQGTTVTVSS VL: DIVMTQSPSSVSVTLGQSASISCRSSRSLLHSNGFTYLYWYLQKPGQSPQLLIYQMSNLASGVPDRFSGSGSGTDFTLKISRVEAEDVGVYYCGQNLELPLTFGGGTKLEIK
